# T1: Arp7/Arp9/Rtt102 heterotrimer (S. cerevisiae, UniProt Q12406;Q05123;P53330)
# T1 sequence 1: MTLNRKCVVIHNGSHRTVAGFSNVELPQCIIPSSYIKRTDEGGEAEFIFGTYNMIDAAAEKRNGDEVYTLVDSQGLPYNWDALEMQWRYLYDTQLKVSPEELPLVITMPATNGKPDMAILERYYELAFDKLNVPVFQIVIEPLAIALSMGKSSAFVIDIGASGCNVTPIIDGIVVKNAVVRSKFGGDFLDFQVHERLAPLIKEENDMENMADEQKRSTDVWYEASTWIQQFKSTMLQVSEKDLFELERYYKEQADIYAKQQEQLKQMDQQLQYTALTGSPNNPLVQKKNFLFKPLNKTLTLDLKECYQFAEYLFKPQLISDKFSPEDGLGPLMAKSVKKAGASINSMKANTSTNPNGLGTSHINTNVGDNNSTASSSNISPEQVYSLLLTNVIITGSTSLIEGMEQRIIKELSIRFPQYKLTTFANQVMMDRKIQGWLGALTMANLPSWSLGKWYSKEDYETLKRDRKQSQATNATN
# T1 sequence 2: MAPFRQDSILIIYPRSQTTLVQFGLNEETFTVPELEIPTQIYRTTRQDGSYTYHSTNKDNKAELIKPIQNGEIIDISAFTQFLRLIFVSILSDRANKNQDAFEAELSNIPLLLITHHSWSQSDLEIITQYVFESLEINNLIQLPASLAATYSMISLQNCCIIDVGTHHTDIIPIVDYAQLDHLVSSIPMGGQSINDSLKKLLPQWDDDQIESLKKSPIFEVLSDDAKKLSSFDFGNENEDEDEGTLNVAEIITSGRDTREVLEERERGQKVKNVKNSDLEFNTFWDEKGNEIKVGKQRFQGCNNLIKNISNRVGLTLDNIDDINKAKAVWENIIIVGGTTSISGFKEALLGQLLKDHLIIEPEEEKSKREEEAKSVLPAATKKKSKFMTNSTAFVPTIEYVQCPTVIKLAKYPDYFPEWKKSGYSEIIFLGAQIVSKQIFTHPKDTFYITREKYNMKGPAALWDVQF
# T1 sequence 3: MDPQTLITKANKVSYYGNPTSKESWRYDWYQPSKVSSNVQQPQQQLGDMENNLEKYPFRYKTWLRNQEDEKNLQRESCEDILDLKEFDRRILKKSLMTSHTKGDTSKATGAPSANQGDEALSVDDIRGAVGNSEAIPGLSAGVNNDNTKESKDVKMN
# B1: Sth1 (AA 301–1097), truncated ATPase subunit of RSC (domain or fragment)
# chain: VRLAEELERQQLLEKRKKERNLHLQKINSIIDFIKERQSEQWSRQERCFQFGRLGASLHNQMEKDEQKRIERTAKQRLAALKSNDEEAYLKLLDQTKDTRITQLLRQTNSFLDSLSEAVRAQQNEAKILHGEEVQPITDEEREKTDYYEVAHRIKEKIDKQPSILVGGTLKEYQLRGLEWMVSLYNNHLNGILADEMGLGKTIQSISLITYLYEVKKDIGPFLVIVPLSTITNWTLEFEKWAPSLNTIIYKGTPNQRHSLQHQIRVGNFDVLLTTYEYIIKDKSLLSKHDWAHMIIDEGHRMKNAQSKLSFTISHYYRTRNRLILTGTPLQNNLPELWALLNFVLPKIFNSAKTFEDWFNTPFANTGTQEKLELTEEETLLIIRRLHKVLRPFLLRRLKKEVEKDLPDKVEKVIKCKLSGLQQQLYQQMLKHNALFVGAGTEGATKGGIKGLNNKIMQLRKICNHPFVFDEVEGVVNPSRGNSDLLFRVAGKFELLDRVLPKFKASGHRVLMFFQMTQVMDIMEDFLRMKDLKYMRLDGSTKTEERTEMLNAFNAPDSDYFCFLLSTRAGGLGLNLQTADTVIIFDTDWNPHQDLQAQDRAHRIGQKNEVRILRLITTDSVEEVILERAMQKLDIDGKVIQAGKFDNKSTAEEQEAFLRRLIESETNRDDDDKAELDDDELNDTLARSADEKILFDKIDKERMNQERADAKAQGLRVPPPRLIQLDELPKVFREDIEEHFKKEDSEPLGRIRQKKRVYYDDGLTEEQFLEAVEDDNMSLEDAIKKRREARERRRLRQ
# B2: Arp9 (natural protein)
# chain: T1 sequence 2
# B3: Arp7 (natural protein)
# chain: T1 sequence 1
# B4: HSA peptide (Sth1 residues 316–377) (peptide)
# peptide: RKKERNLHLQKINSIIDFIKERQSEQWSRQERCFQFGRLGASLHNQMEKDEQKRIERTAKQR
# B5: Rtt102 (natural protein)
# chain: T1 sequence 3
# What was measured:
# [1] = target: T1, Arp7/Arp9/Rtt102 heterotrimer; experiment: cryo-EM structure
# [2] = target: B1; experiment: cryo-EM structure
# Arp7 = target: B3; experiment: cryo-EM structure
# [3] = target: T1, Arp7/Arp9/Rtt102 heterotrimer; experiment: circular dichroism
# Arp9 = target: B2; experiment: cryo-EM structure
binding result [2],binding result (Arp7),Binder,further results
,,B1,binding result [1]: binds
binds,binds,B2,
binds,,B3,
,,B4,binding result [3]: binds
,binds,B5,binding result (Arp9): binds

# From PMC7855068 (Nature structural & molecular biology, 2020)
